Measured values taken from article PMC12454647.

Columns and labels:
[1] = biological target: BdhE (bifunctional dehydrogenase E) from Halomonas eurihalina (Halomonas eurihalina); experiment: native gel or EMSA; blue native PAGE, 3-14% polyacrylamide gradient, 150 V for ~75 minutes; purified AdhE 5 or 10 ug, BdhE 1 or 2 ug
[2] = biological target: BdhE (bifunctional dehydrogenase E) from Halomonas eurihalina (Halomonas eurihalina); experiment: cryo-EM structure; single particle analysis, 2.02 mg/mL AdhE or 1.35 mg/mL BdhE, no cofactors added, Talos Arctica 200 kV, CryoSPARC

## BdhE (bifunctional dehydrogenase E) from Halomonas eurihalina (enzyme)
[1]
  stoichiometry N: 4
[2]
  stoichiometry N: 4
